Molecular target: T1, PPE41 protein of Mycobacterium tuberculosis (Mycobacterium tuberculosis, UniProt Q79FE1 1-194)
T1 construct: also called Rv2430c; rRv2431c (as printed in the methods)
T1 sequence: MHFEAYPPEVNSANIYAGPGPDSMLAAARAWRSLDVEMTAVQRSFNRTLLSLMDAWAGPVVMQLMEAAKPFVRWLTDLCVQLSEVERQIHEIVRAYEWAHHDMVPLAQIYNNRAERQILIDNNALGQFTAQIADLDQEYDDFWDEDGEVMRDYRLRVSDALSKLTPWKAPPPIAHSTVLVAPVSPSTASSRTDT
Test: co-purification by Cobalt affinity chromatography
Settings: partners not purified

B1: PE25 protein of Mycobacterium tuberculosis (natural protein)
chain: MSFVITNPEALTVAATEVRRIRDRAIQSDAQVAPMTTAVRPPAADLVSEKAATFLVEYARKYRQTIAAAAVVLEEFAHALTTGADKYATAEADNIKTFS
notes: also called Rv2431c; rRv2430c (as printed in the methods)
  binding result: binds
